Measurements: publication PMC5399476

Target: wild-type core streptavidin
Assay: SDS-PAGE with fluorescence scanning

stoichiometry N: 4
Substance: wild-type core streptavidin (natural protein)
